According to publication PMC12866851, “ACSL5 Regulates Glucose Metabolism and Chemotherapy Sensitivity in Colorectal Cancer Cells under Glutamine Deficiency” (Advanced Science, 2025):

Biological target: the molecule itself
Assay: cross-linking; HCT116 cells (shctrl or shACSL5) treated without or with DSS crosslinker; whole cell lysates, Western blot against IDH2; dimer and monomer of IDH2

B1: isocitrate dehydrogenase 2 (IDH2) (enzyme, human (endogenous in HCT116), UniProt P48735 40-452, looked up)
chain: ADKRIKVAKPVVEMDGDEMTRIIWQFIKEKLILPHVDIQLKYFDLGLPNRDQTDDQVTIDSALATQKYSVAVKCATITPDEARVEEFKLKKMWKSPNGTIRNILGGTVFREPIICKNIPRLVPGWTKPITIGRHAHGDQYKATDFVADRAGTFKMVFTPKDGSGVKEWEVYNFPAGGVGMGMYNTDESISGFAHSCFQYAIQKKWPLYMSTKNTILKAYDGRFKDIFQEIFDKHYKTDFDKNKIWYEHRLIDDMVAQVLKSSGGFVWACKNYDGDVQSDILAQGFGSLGLMTSVLVCPDGKTIEAEAAHGTVTRHYREHQKGRPTSTNPIASIFAWTRGLEHRGKLDGNQDLIRFAQMLEKVCVETVESGAMTKDLAGCIHGLSNVKLNEHFLNTTDFLDTIKSNLDRALGRQ
notes: IDH2, mitochondrial isocitrate dehydrogenase 2, endogenous in human HCT116 cells; source: endogenous, HCT116 lysate
  stoichiometry N: 2
